B1: Flagellar motor switch protein FliG (Escherichia coli (strain K12)), P0ABZ1 (parent)
chain: MSNLTGTDKSVILLMTIGEDRAAEVFKHLSQREVQTLSAAMANVTQISNKQLTDVLAEFEQEAEQFAALNINANDYLRSVLVKALGEERAASLLEDILETRDTASGIETLNFMEPQSAADLIRDEHPQIIATILVHLKRAQAADILALFDERLRHDVMLRIATFGGVQPAALAELTEVLNGLLDGQNLKRSKMGGVRTAAEIINLMKTQQEEAVITAVREFDGELAQKIIDEMFLFENLVDVDDRSIQRLLQEVDSESLLIALKGAEQPLREKFLRNMSQRAADILRDDLANRGPVRLSQVENEQKAILLIVRRLAETGEMVIGSGEDTYV
partner: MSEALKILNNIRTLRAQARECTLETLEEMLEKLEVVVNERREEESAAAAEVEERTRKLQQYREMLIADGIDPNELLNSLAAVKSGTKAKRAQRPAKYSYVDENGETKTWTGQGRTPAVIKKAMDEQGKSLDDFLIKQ
B2: DNA-binding protein H-NS (Escherichia coli (strain K12)), P0ACF8 (parent)
chain: B1 partner
partner: B1 chain
B3: Flagellar motor switch protein FliG (Escherichia coli (strain K12)), P0ABZ1 (parent)
chain: B1 chain
partner: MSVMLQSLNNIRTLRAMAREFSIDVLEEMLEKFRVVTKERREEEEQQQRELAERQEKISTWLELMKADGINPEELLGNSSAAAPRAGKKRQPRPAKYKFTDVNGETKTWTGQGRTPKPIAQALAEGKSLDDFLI

Variants of: B1
Conditions: with hns_ecoli hns, P0ACF8

effect of a mutation on the interaction	Variant
decreasing interaction strength	E125W
disrupting interaction strength	H126W
disrupting interaction strength	R160W
decreasing interaction strength	Q128W

Variants of: B2
Conditions: with flig_ecoli fliG, P0ABZ1

effect of a mutation on the interaction	Variant
decreasing interaction strength	G113D
decreasing interaction strength	R114W
decreasing interaction	Q112D

Variants of: B3
Conditions: with stpa_ecoli stpA

effect of a mutation on the interaction	Variant
disrupting interaction strength	H126W
disrupting interaction strength	E125W
disrupting interaction strength	R160W

— IntAct's records for PubMed 21890701
